# Data reported in patent US6429014B1, “Monoterpene synthases from grand fir (Abies grandis)” (Washington State University Research Foundation, priority 1997, dated 2002).
# B1: AG2.2: recombinant myrcene synthase from Grand fir encoded by cDNA clone AG2.2 (SEQ ID NO:1; protein SEQ ID NO:2) (protein, listed as Abies grandis)
# chain: MALVSISPLASKSCLRKSLISSIHEHKPPYRTIPNLGMRRRGKSVTPSMSISLATAAPDDGVQRRIGDYHSNIWDDDFIQSLSTPYGEPSYQERAERLIVEVKKIFNSMYLDDGRLMSSFNDLMQRLWIVDSVERLGIARHFKNEITSALDYVFRYWEENGIGCGRDSIVTDLNSTALGFRTLRLHGYTVSPEVLKAFQDQNGQFVCSPGQTEGEIRSVLNLYRASLIAFPGEKVMEEAEIFSTRYLKEALQKIPVSALSQEIKFVMEYGWHTNLPRLEARNYIDTLEKDTSAWLNKNAGKKLLELAKLEFNIFNSLQQKELQYLLRWWKESDLPKLTFARHRHVEFYTLASCIAIDPKHSAFRLGFAKMCHLVTVLDDIYDTFGTIDELELFTSAIKRWNSSEIEHLPEYMKCVYMVVFETVNELTREAEKTQGRNTLNYVRKAWEAYFDSYMEEAKWISNGYLPMFEEYHENGKVSSAYRVATLQPILTLNAWLPDYILKGIDFPSRFNDLASSFLRLRGDTRCYKADRDRGEEASCISCYMKDNPGSTEEDALNHINAMVNDIIKELNWELLRSNDNIPMLAKKHAFDITRALHHLYIYRDGFSVANKETKKLVMETLLESMLF
# Tests used:
# [1] = Monoterpene synthase assay and product identification with extracts of E. coli expressing Grand fir cDNA clones (Example 3); format: biochemical
# Procedure: For expression, bacterial strains E. coil XLOLR/pAG3.18, E. coil XLOLR/pAG3.48, E. coli XL1-Blue/pGAG2.2, E. coli XL1-Blue/pGAG3.18, and E. coil BL21(DE3)/pSBAG10were grown to A600=0.5 at 37° C. in 5 ml of LB medium (Sambrock, J., Fritsch, E. F., and Maniatis, T. (1989) Molecular Cloning: A Laboratory Manual, 2d Ed., Cold Spring Harbor Laboratory, Cold Spring Harbor, N.Y.) supplemented with 100 μg ampicillin/ml or 30 μg kanamycin/ml as determined by the vector. Cultures were then induced by addition of 1 mM isopropyl-1-thio-β-D-galactopyranoside and grown for another 12 h at 20° C. Cells were harvested by centrifugation (2000×g, 10 min) and resuspended in either 1 ml monoterpene synthase assay buffer [50 mM Tris/HCl (pH 7.5), 500 mM KCl, 1 mM MnCl2, 5 mM dithiothreitol, 0.05% (w/v) NaHSO3 and 10% (v/v) glycerol], 1 ml sesquiterpene synthase assay buffer [10 mM dibasic potassium phosphate, 1.8 mM monobasic potassium phosphate (pH 7.3), 140 mM NaCl, 10 mM MgCl2, 5 mM dithiothreitol, 0.05% (w/v) NaHSO3 and 10% (v/v) glycerol], or 1 ml diterpene synthase assay buffer [30 mM Hepes (N-2-hydroxyethylpiperazine-N-′2-ethanesulfonic acid, pH 7.2), 7.5 mM MgCl2, 5 mM dithiothreitol, 10 µM MnCl2, 0.05% (w/v) NaHSO3 and 10% (v/v) glycerol].
# Cells were disrupted by sonication (Braun-Sonic 2000 with microprobe at maximum power for 15 seconds at 0-4° C.), the homogenates were cleared by centrifugation (18,000×g, 10 min), and 1 ml of the resulting supernatant was assayed for monoterpene synthase activity with 2.5 μM of [1-^3H]geranyl diphosphate, for sesquiterpene synthase activity with 3.5 μM [1-^3H]farnesyl diphosphate, or for diterpene synthase activity with 5 μM [1- ^3H]geranylgeranyl diphosphate following standard protocols (Croteau, R., and Cane, D. E. (1985) Methods Enzymol. 110:383-405; LaFever, R. E., Stofer Vogel, B., and Croteau, R. (1994) Arch. Biochem. Biophys. 313:139-149; Dehal, S. S., and Croteau, R. (1988) Arch. Biochem. Biophys. 261:346-356). In the case of the monoterpene synthase and sesquiterpene synthase assays, the incubation mixture was overlaid with 1 ml pentane to trap volatile products. In all cases, after incubation at 31° C. for 2 h, the reaction mixture was extracted with pentane (3×1 ml) and the combined extract was passed through a 1.5 ml column of anhydrous MgSO4 and silica gel (Mallinckrodt 60 Å) to provide the terpene hydrocarbon fraction free of oxygenated metabolites. The columns were subsequently eluted with 3×1 ml of ether to collect any oxygenated products, and an aliquot of each fraction was taken for liquid scintillation counting to determine conversion rate.
# Product Identification—To obtain sufficient product for analysis by radio-GLC (gas liquid chromatography), chiral capillary GLC and GLC-MS (mass spectrum/spectrometry), preparative-scale enzyme incubations were carried out. Thus, the enzyme was prepared from 50 ml of cultured bacterial cells by extraction with 3 ml of assay buffer as above, and the extracts were incubated with excess substrate overnight at 31° C. The hydrocarbon fraction was isolated by elution through MgSO4-silica gel as before, and the pentane eluate was concentrated for evaluation by capillary radio-GLC as described (Croteau, R., and Satterwhite, D. M. (1990) J. Chromatogr. 500:349-354), by chiral column capillary GLC (Lewinsohn, E., Savage, T. J., Gijzen, M., and Croteau, R. (1993) Phytochem. Anal. 4:220-225), and by combined GLC-MS [Hewlett-Packard 6890 GC-MSD with cool (40° C.) on-column injection, detection via electron impact ionization (70 eV), He carrier at 0.7 psi., column:0.25 mm i.d.×30 m fused silica with 0.25 μm film of 5MS (Hewlett-Packard) programmed from 35° C. (5 min hold) to 230° C. at 5° C./min].
# [2] = Terpene synthase assay and GC-MS / chiral GC product identification of recombinant enzymes expressed from pSBET in E. coli BL21(DE3) (Example 11); format: biochemical; conditions: extracts of induced cells
# Procedure: For functional expression, bacterial strains E. coli BL21(DE3)/pSAG2(M), E. coli BL21(DE3)/pSAG2(R), E. coli BL21(DE3)/pSAG3(R), E. coli BL21(DE3)/pSAG6(M), E. coli BL21(DE3/pSAG6(R), E. coli BL21(DE3)/pSAG8(M), E. coli BL21(DE3)/pSAG9(M), E. coli BL21(DE3)/pSAG11(M) and E. coli BL21(DE3)/SAG11(R) were grown to A600=0.5 at 37° C. in 5 ml of Luria-Bertani medium (Sambrook, J., Fritsch, E. F., and Maniatis, T. (1989) Molecular Cloning: A Laboratory Manual, 2nd Ed., pp. 7.20-7.43, Cold Spring Harbor, N.Y.) supplemented with 30 μg kanamycin/ml. Cultures were then induced by addition of 1 mM isopropyl-1-thio-β-D-galactopyranoside and grown for another 12 h at 20° C. Cells were harvested by centrifugation and disrupted by sonication followed by centrifugation, and the resulting soluble enzyme preparations were assayed for monoterpene, sesquiterpene and diterpene synthase activity using the appropriate radiolabeled substrate as described previously (Bohlmann, J., Steele, C. L., and Croteau, R. (1997) J. Biol. Chem. 272, 21784-21792). This assay involves the isolation and separation of terpene olefins and oxygenated terpenes by column chromatography on silica, followed by scintillation counting to determine conversion rate. GC-MS analysis is employed for product identification, by comparison of retention times and mass spectra to those of authentic standards (Bohlmann, J., Steele, C. L., and Croteau, R. (1997) J. Biol Chem. 272, 21784-21792); assignment of absolute configuration is based upon chiral column capillary GC and matching of retention time to that of the corresponding enantiomer (Lewinsohn, E., Savage, T. J., Gijzen, M., and Croteau, R. (1993) Phytochem. Anal. 4, 220-225). To insure production of sufficient material for identification, the standard assay (Bohlmann, J., Steele, C. L., and Croteau, R. (1997) J. Biol. Chem. 272, 21784-21792) was scaled up by a factor of 20.
# Initially, the four pSBET plasmids pSAG6(M), pSAG8(M), pSAG9(M) and pSAG11(M), containing the full-length cDNA inserts of ag6 (SEQ ID NO:64), ag8 (SEQ ID NO:66), ag9 (SEQ ID NO:77) and ag11 (SEQ ID NO:68), respectively, were expressed in E. coli BL21(DE3). Extracts of the induced, transformed bacterial cells were assayed for monoterpene, sesquiterpene and diterpene synthase activity using the corresponding labeled C10, C15 and C20 prenyl diphosphate substrates (Bohlmann, J., Steele, C. L., and Croteau, R. (1997) J. Biol. Chem. 272, 21784-21792). […] Since it is known that the relatively large amino-terminal transit peptide of plant terpene synthases can impair expression of the functional preprotein in E. coli and promote the formation of intractable inclusion bodies (Williams, D. C., McGarvey, D. J., Katahira, E. J., and Croteau, R. (1998) Biochemisiry 37, 12213-12220), the“pseudomature” forms of ag6 (SEQ ID NO:64) and ag11 (SEQ ID NO:68) were prepared by truncation of the cDNAs to insert a starting methionine immediately upstream of their tandem arginine elements (R59R 60 for ag6 (SEQ ID NO:64), R^71R^72 for ag11 (SEQ ID NO:68)) for expression in E. coli BL21(DE3)/pSAG6(R) and E. coli BL21(DE3)/pSAG11(R). Similar truncations of previously characterized ag2.2 (SEQ ID NO:1) (myrcene synthase, R^64R^65) and ag3.18 (SEQ ID NO:3) ((−)-pinene synthase, (SEQ ID NO:5) R^64R^65) (Bohlmann, J., Steele, C. L., and Croteau, R. (1997) J. Biol. Chem. 272, 21784-21792) were prepared for expression from pSBET as controls for the possible alteration of product yield and distribution resulting from truncation.
# Monoterpenes generated at preparative scale from geranyl diphosphate by the recombinant enzymes encoded by ag6 (SEQ ID NO:64), ag8 (SEQ ID NO:66), ag9 (SEQ ID NO:77) and ag11 (SEQ ID NO:68) were analyzed by GC-MS and chiral phase (β-cyclodextrin) capillary GC, and identified by comparison of retention times and mass spectra to authentic standards (FIGS. 6-9). […] The enzyme encoded by ag6 (SEQ ID NO:65) is therefore designated as (−)-1S,4R-camphene synthase. […]
molecule,measurement,setting,value
B1,"prenyl diphosphate substrate utilized (geranyl, farnesyl, geranylgeranyl diphosphate tested)","[1]; cell-free extract of induced E. coli, tritium labeled substrates",only with geranyl diphosphate as substrate
same,monoterpene products formed from geranyl diphosphate,"[1]; radio-GLC, GLC-MS, chiral GLC",the only product was shown to be myrcene
same,terpene synthase activity on expression from pSBET in E. coli BL21(DE3),[2],high level expression of activity
